Source: publication PMC6135047

Biological target: His-ToxR (Vibrio parahaemolyticus RIMD 2210633?) (UniProt Q05938)
Assay: DNase I footprinting

Chain of UniProt Q05938 (Q05938 1-176): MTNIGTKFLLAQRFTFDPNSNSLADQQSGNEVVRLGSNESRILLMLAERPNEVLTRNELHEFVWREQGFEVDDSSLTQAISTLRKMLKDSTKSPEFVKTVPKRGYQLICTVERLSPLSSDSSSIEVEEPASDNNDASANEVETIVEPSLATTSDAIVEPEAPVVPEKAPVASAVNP

Row | Sequence | binding
1 | CAGAGTGACCCAGAGCCGTTTTGATGCTGTTATTTTTCATCATTCGGCGCGATTAATATGCTAAAGATGGTCGGATTTTTTTCGTTTTAAGACGTTTGAAAACAACAAAGCTCAGCAATGTGCTGAGCTTTGTGTTCGATTGATTTGGCGGTGATGCCCTACTCTGGTG (double strand) [VP1687 footprint probe] | binds
2 | CAGATTGCTGAATATCGGTGATGTATGAGAAATCGTTCAATGTAAAAAATATGCGCAATGATTGATGCTGGGAGAATAGAAAGGATGAGGTGGTATTTATAGTGAATATTGGTCGGGAGTTTTTAGAAAACTGAAAACGCCCTAAAAAAACACGTCTGATTTTGACAGCCTGATAAAAACGCACTTCATATAATTCGCTTGTATTGTACGAAAGGAGTGCAAGTGAATGAGTATTATCAAT (double strand) [VP1667 (vopN) footprint probe] | binds
3 | TTTCAGGGACGACTTTGTGATTTAGCCCCATGAAATCACCACACTAAGATGTCATTTAACATGTGGCTGACAAATGTAAATTCAAGGTCAATATTGCTAAAAACGGTGTTTTTTTAGAAAAATTTAATTATCCTACCCCCCTAAAAGCATCTAAAACGTCGCGTATCTCCCATGCGCAAACGTAATTTTGTGATATAAATCACCATAATTACAACATCATCCATCTAAGAAGAACTAA (double strand) [toxR footprint probe] | binds
